Measurements published in patent publication US20090111104A1, “Method for Monitoring Hydrolytic Activity” (Fluorotechnics Pty Limited, priority 2005, published 2009).

Experiments:
BSA = biological target: T1, BSA (Bos taurus, UniProt P02769); assay: Real-time monitoring of BSA proteolysis with different fluorophores in the presence of detergent (Example 7); type: biochemical, bovine; details: method of example 7, real-time with fluorophore and SDS
T1 construct: purchased Sigma-Aldrich A3059
Protocol: • 1 Trypsin and papain digestion was carried out in bicine buffer at pH 8.4 and pH 7.0, respectively. • 2 BSA was prepared in 10 mg/mL in 100 mM bicine buffer. • 3 One hundred microliter of the BSA sample was used for trypsin and papain digestion.
7.2.2 Real-Time Monitoring of Trypsin Digestion with Fluorophores in the Presence of a Detergent • 1. The reduced and denatured BSA sample was diluted 10-fold in 100 mM bicine buffer (25 μL+225 μL bicine buffer). • 2. One hundred microliter of the sample (step 1) was added to a well in a 96-well microtiter plate. Controls included a bicine-based digestion buffer, a trypsin sample or papain only and an undigested BSA sample (no trypsin or no papain). The assay consists of a 4-well sample set for one fluorophore, e.g. SYPROorange. Three sets of samples were prepared in the same manners for the remaining fluorophores, e.g. Nile red, epicocconone and […]. • 3. SYPROorange stock solution was diluted 5000-fold in the bicine buffer (pH 8.4). Nile red and epicocconone and stock solutions were diluted 100-fold in the 100 mM bicine (pH 8.5). ANS was diluted 100-fold in the bicine buffer (pH 7.0). • 4. […] Fluorescence development was monitored in real time every 2 minutes up to 400 minutes using FluoStar (Ex/Em=485/600±10 for SYPROorange; 540±10/630±10 for epicocconone and Nile red; 355/460 for ANS). […]

carbonic anhydrase (CA) = biological target: T2, carbonic anhydrase (CA) (Bos taurus, UniProt P00921); assay: Real-time monitoring of tryptic digestion of carbonic anhydrase using epicocconone with and without SDS; type: biochemical, bovine
T2 construct: purchased Sigma-Aldrich C7025
Protocol: • 1 Trypsin digestion was carried out in bicine buffer (pH 8.4) • 2 Protein samples were prepared in 10 mg/mL in 100 mM bicine buffer. • 3 One hundred microliter of the protein sample was used for trypsin digestion.
• 4. The 100 μL of protein samples was reduced by adding 1 μL of 10% SDS and 5 μL of DTT stock for 10 min at 80° C. • 5. Another sample was reduced with only 5 μL of DTT stock for 10 min at 80° C. (no SDS) • 3 The samples were alkylated by adding 4 μL of the iodoacetamide stock at room temperature for 45 min-1 hr. • 4 The remaining iodoacetamide of the samples were neutralised by adding 20 μL of the DTT at room temp for 45 min-1 hr. […] Fluorescence development was monitored in real time every 2 minutes up to 400 minutes using FluoStar (Ex/Em=540±10/[…]±10). • 16. […]
Progress curves were fitted as per Example 6. […] In the presence of a non-denaturing quantity of detergent (open squares) carbonic anhydrase (CA) becomes more hydrophobic and has an increase in fluorescence when exposed to a fluorophore that is sensitive to its environment such as epicocconone. Upon addition of trypsin, the fluorescence drops as per Example 6 but in the sample with no SDS (inverted triangles) the change in fluorescence is reduced by more than 50% compared to in the presence of SDS (open circles). […]

T2 sequence (P00921 whole entry): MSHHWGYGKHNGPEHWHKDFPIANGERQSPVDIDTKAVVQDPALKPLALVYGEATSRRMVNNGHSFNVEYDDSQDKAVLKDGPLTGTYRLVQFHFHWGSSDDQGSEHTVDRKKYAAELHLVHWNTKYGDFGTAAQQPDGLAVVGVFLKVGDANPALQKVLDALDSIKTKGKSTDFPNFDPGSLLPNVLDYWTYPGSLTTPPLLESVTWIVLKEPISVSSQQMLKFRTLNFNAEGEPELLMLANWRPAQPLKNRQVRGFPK
T1 sequence (P02769 25-607): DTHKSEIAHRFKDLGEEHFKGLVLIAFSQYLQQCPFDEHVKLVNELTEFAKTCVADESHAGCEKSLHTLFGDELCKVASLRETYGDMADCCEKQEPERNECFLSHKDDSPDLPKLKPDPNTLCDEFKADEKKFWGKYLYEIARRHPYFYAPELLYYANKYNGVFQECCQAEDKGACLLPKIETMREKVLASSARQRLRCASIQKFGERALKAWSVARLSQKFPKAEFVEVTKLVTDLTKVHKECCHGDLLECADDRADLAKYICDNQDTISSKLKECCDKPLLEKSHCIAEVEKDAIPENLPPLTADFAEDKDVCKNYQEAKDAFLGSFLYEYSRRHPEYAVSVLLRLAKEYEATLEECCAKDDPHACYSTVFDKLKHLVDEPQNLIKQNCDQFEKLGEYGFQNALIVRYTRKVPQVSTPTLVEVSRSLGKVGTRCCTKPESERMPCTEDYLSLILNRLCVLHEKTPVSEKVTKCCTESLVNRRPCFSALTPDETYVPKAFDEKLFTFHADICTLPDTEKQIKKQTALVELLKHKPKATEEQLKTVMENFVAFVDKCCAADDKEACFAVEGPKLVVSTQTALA

pseudo-first order rate constant for digestion of BSA (BSA): 0.1 to 0.2 min⁻¹
observed rate constant (carbonic anhydrase (CA); with SDS): 0.025 min⁻¹
observed rate constant (carbonic anhydrase (CA); without SDS): 0.025 min⁻¹
B1: trypsin: Proteomics grade trypsin protease, Sigma-Aldrich T6567 (protein, UniProt P00761 9-231, looked up)
Trypsin: IVGGYTCAANSIPYQVSLNSGSHFCGGSLINSQWVVSAAHCYKSRIQVRLGEHNIDVLEGNEQFINAAKIITHPNFNGNTLDNDIMLIKLSSPATLNSRVATVSLPRSCAAAGTECLISGWGNTKSSGSSYPSLLQCLKAPVLSDSSCKSSYPGQITGNMICVGFLEGGKDSCQGDSGGPVVCNGQLQGIVSWGYGCAQKNKPGVYTKVCNYVNWIQQTIAAN
